Results on three molecules are retold here after patent US20130302375A1, “MODULATION OF ANTIGEN IMMUNOGENICITY BY ADDITION OF EPITOPES RECOGNIZED BY NKT CELLS” (IMNATE SARL, priority 2010, published 2013).

Substitutions are numbered along the chain they refer to.

In assay [1] the test system is class II restricted CD4+ T cells. The assay can be described thus: Proliferation of CD4+ T cells from immunized mice cultured with dendritic cells from CD1d KO mice. Format: cell-based, C57BL/6 mice. Conditions: 10^6 cells/well with dendritic cells from syngeneic CD1d KO mice. The method, then: Further, CD4+ T cells were prepared from the spleen of each mouse from the 2 groups, using magnetic bead sorting. Such cells (10^6 cells/well) were cultured with dendritic cells prepared from syngeneic CD1d KO mice. Such cells can only activate class II restricted CD4+ T cells. It is observed that cells obtained from mice immunized with Der p 2 of SEQ ID8 proliferate with a stimulation index 4-fold higher than cells obtained from mice immunized with native Der p 2 (SEQ ID7).

The next assay concerns anti-Der p 2 antibodies. The assay can be described thus: Specific anti-Der p 2 antibodies by direct binding ELISA after immunization. The assay is classed as in vivo, C57BL/6 mice. To be noted: 50 μg protein in alum subcutaneously 4 times at 10 days intervals. The method, then: Two groups of C57BL/6 mice (H-2b) were immunized with either native Der p 2 (SEQ ID7) or native Der p 2 wherein a CD1d binding motif had been added (SEQ ID8), using 50 μg of protein in alum injected subcutaneously 4 times at 10 days intervals. Mice were then bled and the concentration of specific anti-Der p 2 antibodies was tested by direct binding ELISA. It is observed that the concentration of antibodies is 10-fold higher in the group of mice immunized with Der p 2 of SEQ ID8.
A general note: An ELISA detects its analyte on a solid surface through an enzyme-linked reagent.

The subject of another assay is EG7 cells. The assay can be described thus: In vitro killing of EG7 cells by NKT cells from immunized mice (Annexin V / 7-AAD). Format: cell-based. To be noted: 18 h at 37° C. with NKT cells from immunized mice, ratios 1/1 to 1/5 (EG7 versus NKT). The method, then:
In vitro killing of EG7 cells was evaluated using NKT cells prepared from the spleen using magnetic bead sorting. The NKT cells were first stimulated for 4 h in vitro with antigen-presenting cells loaded with ova of SEQ ID4. EG7 cells were labeled at membrane level with 1 μM DiOC18 (3,3′-dioctadecycloxacarbocyanine perchlorate from Invitrogen). EG7 cells (1×10^5 per well) were then cultured for 18 h at 37° C. in the presence of NKT cells obtained from each one of the 2 mouse groups, using ratios of 1/1 to 1/5 (EG7 cells versus NKT cells). After 18 h, cells were harvested and stained for Annexin V and 7-AAD following manufacturer's instructions (Apoptosis Detection kit; BD Biosciences) and analyzed on a FACSCantoII flow cytometer (BD Biosciences).

In another assay the test system is EG7 tumor cells. Put plainly: EG7 tumor growth in preimmunized mice. The assay is classed as in vivo. Conditions: mice preimmunized subcutaneously in alum on 4 occasions, then engrafted with 10^6 EG7 tumor cells in the flank. The method, then:
Immunization of mice with ova of SEQ ID4 was carried out using […] of ova in alum administered subcutaneously on 4 occasions separated by an interval of 10 days. A control group was immunized with ova in natural sequence (SEQ ID3). All mice were then engrafted with 10^6 EG7 tumor cells injected in the flank and the growth of the tumor was followed over time.

B1: Der p 2 of SEQ ID8: Der p 2 with the CD1d binding motif FAALAAF added at the carboxyterminal end (protein, listed as Dermatophagoides pteronyssinus)
chain: DQVDVKDCANHEIKKVLVPGCHGSEPCIIHRGKPFQLEAVFEANQNSKTAKIEIKASIDGLEVDVPGIDPNACHYMKCPLVKGQQYDIKYTWNVPKIAPKSENVVVTAKVMGDDGVLACAIATHAKIRDFAALAAF
For the molecule B1, the “stimulation index of CD4+ T cell proliferation, versus cells from mice immunized with native Der p 2 (SEQ ID7)” value in assay [1] worked out at 4 fold. Besides, the “concentration of specific anti-Der p 2 antibodies, versus mice immunized with native Der p 2 (SEQ ID7)” value in the assay on anti-Der p 2 antibodies stood at 10 fold.

B2: ova of SEQ ID4: ovalbumin with H22 and K187 mutated to F, generating new CD1d binding motifs (protein, listed as Gallus sp.)
chain: MGSIGAASMEFCFDVFKELKVFHANENIFYCPIAIMSALAMVYLGAKDSTRTQINKVVRFDKLPGFGDSIEAQCGTSVNVHSSLRDILNQITKPNDVYSFSLASRLYAEERYPILPEYLQCVKELYRGGLEPINFQTAADQARELINSWVESQTNGIIRNVLQPSSVDSQTAMVLVNAIVFKGLWEFTFKDEDTQAMPFRVTEQESKPVQMMYQIGLFRVASMASEKMKILELPFASGTMSMLVLLPDEVSGLEQLESIINFEKLTEWTSSNVMEERKIKVYLPRMKMEEKYNLTSVLMAMGITDVFSSSANLSGISSAESLKISQAVHAAHAEINEAGREVVGSAEAGVDAASVSEEFRADHPFLFCIKHIATNAVLFFGRCVSP
For B2, the “apoptosis of EG7 cells” value in the assay with EG7 cells was “induced into apoptosis”. In addition, the tumor rejection entry in the assay with EG7 tumor cells is “rejected the tumor”.

B3: ova of SEQ ID3: ovalbumin (chicken) in natural sequence (protein, listed as Gallus sp.)
chain: B2 chain with F22H, F187K
Take B3: in the assay on EG7 cells, the “apoptosis of EG7 cells” value is reported as “did not induce a significant degree of tumor cell apoptosis”. Moreover, the tumor rejection result with EG7 tumor cells was “did not”.
